Laboratory results reported in US7070974B1, “Metalloproteases of the neprilysin family” (Universite de Montreal, priority 1999, dated 2006).
Where two headings read alike, the source gives them in different places.

Columns and labels:
[1] = test system: NL1 secretion (subtilisin-like convertase processing) in HEK 293 cells; assay: Immunoblot of culture media of HEK 293 cells co-expressing NL1 and α1-PDX; format: cell-based, Human; conditions: transient co-transfection, increasing amounts of α1-PDX plasmid; related to the amount
Description: Human Embryonic Kidney (HEK 293) cells were maintained in DMEM medium containing 10% fetal bovine serum (FBS), and supplemented with penicillin at 60 μg/ml, streptomycin at 100 μg/ml and fongizone at 0.25 μg/ml. Transfections of cells with appropriate plasmids were performed by the calcium/phosphate-DNA co-precipitation method (Chang 1987).
For immunoblot analysis, cells were incubated for 16 h in synthetic DMEM medium containing 2 mM sodium butyrate. Cellular proteins were solubilized as previously described (Dion 1995). Secreted proteins recovered in culture media were concentrated approximately 10 fold by ultrafiltration. Immunoblot analysis were performed using the NEN Renaissance kit with the polyclonal antibody specific to NL1 or the α1-antitrypsin inhibitor antibody (Calbiochem; LaJolla, Calif.) followed by the appropriate horseradish peroxidase-conjugated IgG (Vector Laboratories).
To determine whether a member of the mammalian subtilisine-like convertase family is responsible for NL1 presence in the culture medium of transfected cells, we co-transfected transiently HEK 293 cells with a constant amount of plasmid pCDNA3/RSV/NL1 and increasing amounts of plasmid pCDNA3/CMV/PDX (Benjannet 1997). This latter vector promotes the expression of the α1-antitrypsin Portland variant, α1-PDX, a known inhibitor of subtilisin-like convertases (Anderson 1993).

NL1 [2] = target: T1, NL1 (Mus musculus, UniProt Q9JLI3); assay: NL-1 enzymatic activity assay with (Tyrosyl-[3,5-3H])(D-Ala2)-Leu5-enkephalin as substrate; format: biochemical; set-up: The soluble form of NL-1 was assayed for activity; made in house; host or cells: CHO cells (section 1, pcDNA3-RSV) and HEK 293 cells (section 2, pCDNA3/RSV); conditions: inhibition of NL-1 degradation of the enkephalin substrate
T1 sequence (Q9JLI3 63-765 limits assumed): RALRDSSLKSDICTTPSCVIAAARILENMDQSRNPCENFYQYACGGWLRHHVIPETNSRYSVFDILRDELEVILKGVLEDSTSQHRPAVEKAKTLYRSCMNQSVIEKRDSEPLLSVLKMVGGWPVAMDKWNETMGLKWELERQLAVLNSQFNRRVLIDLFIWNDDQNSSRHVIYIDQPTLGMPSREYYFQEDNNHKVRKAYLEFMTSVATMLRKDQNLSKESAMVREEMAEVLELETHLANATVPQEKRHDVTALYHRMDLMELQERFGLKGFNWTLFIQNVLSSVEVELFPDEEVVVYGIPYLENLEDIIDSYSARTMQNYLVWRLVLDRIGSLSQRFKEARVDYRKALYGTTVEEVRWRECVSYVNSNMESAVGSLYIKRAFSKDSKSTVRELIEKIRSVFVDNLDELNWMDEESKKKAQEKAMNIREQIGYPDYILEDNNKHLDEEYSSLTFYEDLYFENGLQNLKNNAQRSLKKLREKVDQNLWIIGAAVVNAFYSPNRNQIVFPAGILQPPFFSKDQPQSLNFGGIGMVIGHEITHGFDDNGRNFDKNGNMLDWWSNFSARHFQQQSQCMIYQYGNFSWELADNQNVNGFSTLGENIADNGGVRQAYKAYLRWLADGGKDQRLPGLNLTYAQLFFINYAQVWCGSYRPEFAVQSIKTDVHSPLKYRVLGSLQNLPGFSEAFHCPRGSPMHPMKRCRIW
Description: Extracts of cellular proteins and culture media were assayed for enzymatic activity. Two tests were performed. The first used [^3H]-Tyr-(D)Ala2-Leu-enkephalin as substrate and was performed according to Lemay et al., (1989). The second used bradykinin as substrate and was performed as described by Raut et al. (1999).
NL1 activity was monitored and compared to sNEP activity using (Tyrosyl-[3,5-^3H])(D-Ala2)-Leu5-enkephalin (50 Ci/mmol) (Research Products International Inc.), as already described (Dion 1995; Devault 1988). Km values were determined by the isotope-dilution method.

Leu5-enkephalin [3] = test system: T2, Leu5-enkephalin
T2 sequence: YGGFL

[4] = test system: T3, (Tyrosyl-[3,5-3H])(D-Ala2)-Leu5-enkephalin
T3 sequence: YAGFL

[5] = target: T4, sNEP (engineered soluble form of NEP) (Oryctolagus cuniculus, UniProt P08049); assay: sNEP enzymatic activity assay with (Tyrosyl-[3,5-3H])(D-Ala2)-Leu5-enkephalin as substrate; format: biochemical; conditions: inhibition of sNEP/NEP activity
T4 construct: Fusion of a cleavable signal peptide to the ectodomain of neutral endopeptidase; cleavable signal peptide of proopiomelanocortin (replaces cytosolic and transmembrane domains) (N, cleaved yes); made in house; host or cells: LLC-PK1 cells transfected with pRcCMV-sNEP; concentrated culture medium
T4 sequence (P08049 52-750 limits assumed): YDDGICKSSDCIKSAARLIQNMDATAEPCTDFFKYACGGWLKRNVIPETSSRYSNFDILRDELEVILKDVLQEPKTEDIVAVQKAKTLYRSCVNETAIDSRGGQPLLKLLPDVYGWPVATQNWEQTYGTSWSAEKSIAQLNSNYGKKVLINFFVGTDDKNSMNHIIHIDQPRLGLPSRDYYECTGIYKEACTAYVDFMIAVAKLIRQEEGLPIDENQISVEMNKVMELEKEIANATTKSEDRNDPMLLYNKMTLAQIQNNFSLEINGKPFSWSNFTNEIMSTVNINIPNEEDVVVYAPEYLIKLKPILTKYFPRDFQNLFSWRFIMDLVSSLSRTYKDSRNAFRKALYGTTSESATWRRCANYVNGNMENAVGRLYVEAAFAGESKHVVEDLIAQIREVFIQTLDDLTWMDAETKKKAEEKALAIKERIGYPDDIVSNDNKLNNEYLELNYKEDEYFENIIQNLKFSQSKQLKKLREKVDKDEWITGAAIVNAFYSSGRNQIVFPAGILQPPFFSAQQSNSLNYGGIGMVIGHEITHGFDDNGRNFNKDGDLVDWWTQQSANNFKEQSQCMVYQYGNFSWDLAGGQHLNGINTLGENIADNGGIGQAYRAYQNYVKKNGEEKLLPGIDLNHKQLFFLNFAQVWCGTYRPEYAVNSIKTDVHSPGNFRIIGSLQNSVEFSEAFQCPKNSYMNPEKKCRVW

NL1 [6] = target: T1, NL1; assay: HPLC analysis of the hydrolysis of Leu-enkephalin by NL1; format: biochemical; set-up: The soluble form of NL-1 was assayed for activity; made in house; host or cells: HEK 293 cells (section 2, pCDNA3/RSV); conditions: phosphoramidon 1 μM; Leu5-enkephalin; NL1 from medium of HEK/NL1 cells; RP-HPLC
Excerpt: (§1) Hydrolysis products were separated by reversed-phase HPLC as described previously.

sNEP = target: T5, sNEP (Oryctolagus cuniculus, UniProt P08049); assay: HPLC analysis of the hydrolysis of Leu-enkephalin by sNEP; format: biochemical; conditions: phosphoramidon 1 μM, Leu5-enkephalin, RP-HPLC
T5 construct: Fusion of a cleavable signal peptide to the ectodomain of neutral endopeptidase; cleavable signal peptide of proopiomelanocortin (replaces cytosolic and transmembrane domains) (N, cleaved yes); made in house; host or cells: LLC-PK1 cells transfected with pRcCMV-sNEP; concentrated culture medium
T5 sequence (P08049 52-750 limits assumed): T4 sequence (P08049 52-750 limits assumed)
Excerpt: as §1

[7] = target: T6, (Tyrosyl-[3,5-3H])(D-Ala2)-Leu5-enkephalin
T6 chain: YAGFL

Leu5-enkephalin [8] = target: T7, Leu5-enkephalin
T7 chain: YGGFL

bradykinin, P01042, sequence (P01042 whole entry, looked up): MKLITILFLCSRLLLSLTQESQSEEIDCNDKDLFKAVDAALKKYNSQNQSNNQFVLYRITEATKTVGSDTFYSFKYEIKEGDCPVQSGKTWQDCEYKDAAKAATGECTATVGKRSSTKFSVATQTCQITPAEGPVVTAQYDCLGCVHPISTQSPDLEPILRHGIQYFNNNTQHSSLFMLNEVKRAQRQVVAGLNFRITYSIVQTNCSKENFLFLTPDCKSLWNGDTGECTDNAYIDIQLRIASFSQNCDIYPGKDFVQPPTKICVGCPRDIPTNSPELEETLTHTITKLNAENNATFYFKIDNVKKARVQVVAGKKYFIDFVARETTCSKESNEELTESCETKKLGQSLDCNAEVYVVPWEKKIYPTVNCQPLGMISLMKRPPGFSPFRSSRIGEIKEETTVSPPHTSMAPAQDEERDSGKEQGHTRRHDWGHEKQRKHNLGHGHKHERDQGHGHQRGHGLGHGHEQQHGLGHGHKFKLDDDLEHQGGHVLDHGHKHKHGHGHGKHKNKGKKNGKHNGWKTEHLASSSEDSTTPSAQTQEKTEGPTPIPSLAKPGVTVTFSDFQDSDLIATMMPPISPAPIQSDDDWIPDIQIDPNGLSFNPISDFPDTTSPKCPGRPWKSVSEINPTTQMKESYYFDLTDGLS

With “α1-PDX: α1-antitrypsin Portland variant, a known inhibitor of subtilisin-like convertases, expressed from plasmid pCDNA3/CMV/PDX” the “effect on NL1 secretion” value [1] was “strongly inhibited”.

With O=C(O)CNC(=O)C(CS)Cc1ccccc1 (centres unmarked) [thiorphan] the IC50 (NL1 [2]) was 47 nM.

For engineered soluble form of NEP (sNEP), the “cleavage products by RP-HPLC” value (Leu5-enkephalin [3]) was “both enzymes cleaved the substrate at the Gly3-Phe4 peptide bond” and the Km [4] was “Km values of 18 µM and 73 µM, respectively”.

In the case of CC(C)C[C@H](NP(=O)(O)O[C@@H]1O[C@@H](C)[C@H](O)[C@@H](O)[C@H]1O)C(=O)N[C@@H](Cc1c[nH]c2ccccc12)C(=O)O [phosphoramidon], the IC50 [5] is reported as 0.5 nM, the “inhibition of enkephalin-degrading activity” value (NL1 [6]) is reported as “completely inhibited” and the IC50 (NL1 [2]) is reported as 0.9 nM. For the same molecule, the “inhibition of enkephalin-degrading activity” value (sNEP) was “completely inhibited”.

B1: soluble form of NL-3 (NL-3 ectodomain secreted by means of the NL-1 amino-terminal domain) (protein)
chain: KYLGPVAAGGGACPEGCPERKAFARAARFLAANLDASIDPCQDFYSFACGGWLRRHAIPDDKLTYGTIAAIGEQNEERLRRLLARPGGGPGGAAQRKVRAFFRSCLDMREIERLGPRPMLEVIEDCGGWDLGGAEERPGVAARWDLNRLLYKAQGVYSAAALFSLTVSLDDRNSSRYVIRIDQDGLTLPERTLYLAQDEDSEKVLAAYRVFMERVLSLLGADAVEQKAQEILQVEQQLANITVSEYDDLRRDVSSMYNKVTLGQLQKITPHLRWKWLLDQIFQEDFSEEEEVVLLATDYMQQVSQLIRSTPHRVLHNYLVWRVVVVLSEHLSPPFREALHELAQEMEGSDKPQELARVCLGQANRHFGMALGALFVHEHFSAASKAKVQQLVEDIKYILGQRLEELDWMDAETRAAARAKLQYMMVMVGYPDFLLKPDAVDKEYEFEVHEKTYFKNILNSIRFSIQLSVKKIRQEVDKSTWLLPPQALNAYYLPNKNQMVFPAGILQPTLYDPDFPQSLNYGGIGTIIGHELTHGYDDWGGQYDRSGNLLHWWTEASYSRFLRKAECIVRLYDNFTVYNQRVNGKHTLGENIADMGGLKLAYHAYQKWVREHGPEHPLPRLKYTHDQLFFIAFAQNWCIKRRSQSIYLQVLTDKHAPEHYRVLGSVSQFEEFGRVLHCPKVSPMNPAHKCSVW
For B1, the enzymatic activity [7] was “No activity was found”.

B2: soluble NL-1 (secreted form of mouse NL-1 recovered from culture medium) (protein)
chain: GKQLPLLTSLLHFSWDERTVVKRALRDSSLKSDICTTPSCVIAAARILENMDQSRNPCENFYQYACGGWLRHHVIPETNSRYSVFDILRDELEVILKGVLEDSTSQHRPAVEKAKTLYRSCMNQSVIEKRDSEPLLSVLKMVGGWPVAMDKWNETMGLKWELERQLAVLNSQFNRRVLIDLFIWNDDQNSSRHVIYIDQPTLGMPSREYYFQEDNNHKVRKAYLEFMTSVATMLRKDQNLSKESAMVREEMAEVLELETHLANATVPQEKRHDVTALYHRMDLMELQERFGLKGFNWTLFIQNVLSSVEVELFPDEEVVVYGIPYLENLEDIIDSYSARTMQNYLVWRLVLDRIGSLSQRFKEARVDYRKALYGTTVEEVRWRECVSYVNSNMESAVGSLYIKRAFSKDSKSTVRELIEKIRSVFVDNLDELNWMDEESKKKAQEKAMNIREQIGYPDYILEDNNKHLDEEYSSLTFYEDLYFENGLQNLKNNAQRSLKKLREKVDQNLWIIGAAVVNAFYSPNRNQIVFPAGILQPPFFSKDQPQSLNFGGIGMVIGHEITHGFDDNGRNFDKNGNMLDWWSNFSARHFQQQSQCMIYQYGNFSWELADNQNVNGFSTLGENIADNGGVRQAYKAYLRWLADGGKDQRLPGLNLTYAQLFFINYAQVWCGSYRPEFAVQSIKTDVHSPLKYRVLGSLQNLPGFSEAFHCPRGSPMHPMKRCRIW
B2 was tested, and the substrate degradation (bradykinin, P01042) was “Bradykinin is also a substrate for NL-1 (not shown)”, the “cleavage products by RP-HPLC” value (Leu5-enkephalin [8]) was “both enzymes cleaved the substrate at the Gly3-Phe4 peptide bond” and the Km [7] was “Km values of 18 µM and 73 µM, respectively”. For the same molecule, the “Km (degradation of the enkephalin substrate)” value [7] was “Km=18±10 µM” and the “enzymatic activity in culture medium” value [7] was “Activity was detected in the culture medium of HEK/NL1 cells but not in that of HEK 293 cells”.
